Source: doi:10.1101/2024.10.07.616643
pKd: −log10 of the molar value.

Molecular target: F-actin (rabbit skeletal muscle α-actin filaments) (rabbit) (UniProt P68135)
Assay: co-sedimentation

- pKd: 5.07
Substance: F-tractinopt-mCherry (peptide)
